Patent US20220204580A1 (AstraZeneca / MedImmune, published 2022)
Numbered stars: 1 amine (or outer) side, 2 acyl side, 3 side chain; on linkers, the order of the positions; unused ones are H or OH. Bridge positions count the residues as written; N and C are the ends. Square brackets hold non-standard residues; d marks the D form. Side chains are listed from the residue outwards. Ends that are not written are not given here. * marks the point of attachment. C20 diacid = O=C(O)CCCCCCCCCCCCCCCCCCC(=O)*; C18 diacid = O=C(O)CCCCCCCCCCCCCCCCC(=O)*; γGlu = O=C(O)[C@H](CCC(=O)[*:2])N[*:1]; αMeF = C[C@](N)(Cc1ccccc1)C(=O)O; Dab = NCC[C@H](N)C(=O)O; Aib = CC(C)(N)C(=O)O

T1: human amylin receptor (calcitonin receptor co-expressed with receptor activity modifying protein, RAMP3) (human, UniProt P30988 25-474; O60896 24-148)
T1 sequence (looked up) 1: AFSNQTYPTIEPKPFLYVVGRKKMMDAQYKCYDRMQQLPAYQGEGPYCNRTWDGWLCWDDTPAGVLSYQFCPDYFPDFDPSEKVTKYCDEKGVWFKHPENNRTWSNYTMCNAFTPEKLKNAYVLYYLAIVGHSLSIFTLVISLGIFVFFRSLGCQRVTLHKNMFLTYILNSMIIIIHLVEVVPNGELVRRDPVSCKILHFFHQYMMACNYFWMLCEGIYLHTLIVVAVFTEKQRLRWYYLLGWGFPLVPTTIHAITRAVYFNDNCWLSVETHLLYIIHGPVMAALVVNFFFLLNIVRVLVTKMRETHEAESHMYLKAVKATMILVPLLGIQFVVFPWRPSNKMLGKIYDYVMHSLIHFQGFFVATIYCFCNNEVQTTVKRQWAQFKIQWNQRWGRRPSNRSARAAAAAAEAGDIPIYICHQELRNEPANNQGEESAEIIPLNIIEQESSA
T1 sequence (looked up) 2: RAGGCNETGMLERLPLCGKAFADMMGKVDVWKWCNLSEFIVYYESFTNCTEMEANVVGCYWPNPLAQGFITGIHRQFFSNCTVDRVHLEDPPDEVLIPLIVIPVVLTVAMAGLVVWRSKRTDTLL

T2: human calcitonin receptor (human, UniProt P30988 25-474)
T2 sequence (looked up): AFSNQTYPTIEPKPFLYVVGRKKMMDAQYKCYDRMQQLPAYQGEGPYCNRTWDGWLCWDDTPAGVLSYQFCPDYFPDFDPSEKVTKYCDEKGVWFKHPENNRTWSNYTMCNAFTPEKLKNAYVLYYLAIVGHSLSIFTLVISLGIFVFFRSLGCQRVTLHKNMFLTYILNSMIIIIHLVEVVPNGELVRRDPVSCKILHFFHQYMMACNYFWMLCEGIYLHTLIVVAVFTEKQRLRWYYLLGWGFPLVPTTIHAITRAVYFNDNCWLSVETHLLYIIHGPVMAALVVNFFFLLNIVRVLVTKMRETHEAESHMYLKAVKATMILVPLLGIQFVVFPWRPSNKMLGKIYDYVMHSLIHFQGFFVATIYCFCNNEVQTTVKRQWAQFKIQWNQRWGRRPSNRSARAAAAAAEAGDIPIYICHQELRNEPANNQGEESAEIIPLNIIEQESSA


Experiments:
[1] = target: T1, human amylin receptor (calcitonin …); assay: cell-based or functional assay
[2] = target: T2, human calcitonin receptor; assay: cell-based or functional assay

Binder	EC50 (cAMP production) [1] [nM]	Ratio (EC50 hCTR / EC50 hAMYR3) [1]	EC50 (cAMP production) [2] [nM]
K([γGlu-γGlu-C20 diacid])CNTATCATQRLANFLVHSS[Aib]NFPAILSPTNVGS[Dab]TY-NH2 (disulfide 2-7; N-terminus assumed; SMILES CC[C@H](C)[C@H](NC(=O)[C@H](C)NC(=O)[C@@H]1CCCN1C(=O)[C@H](Cc1ccccc1)NC(=O)[C@H](CC(N)=O)NC(=O)C(C)(C)NC(=O)[C@H](CO)NC(=O)[C@H](CO)NC(=O)[C@H](Cc1c[nH]cn1)NC(=O)[C@@H](NC(=O)[C@H](CC(C)C)NC(=O)[C@H](Cc1ccccc1)NC(=O)[C@H](CC(N)=O)NC(=O)[C@H](C)NC(=O)[C@H](CC(C)C)NC(=O)[C@H](CCCNC(=N)N)NC(=O)[C@H](CCC(N)=O)NC(=O)[C@@H](NC(=O)[C@H](C)NC(=O)[C@@H]1CSSC[C@H](NC(=O)[C@@H](N)CCCCNC(=O)CC[C@H](NC(=O)CC[C@H](NC(=O)CCCCCCCCCCCCCCCCCCC(=O)O)C(=O)O)C(=O)O)C(=O)N[C@@H](CC(N)=O)C(=O)N[C@@H]([C@@H](C)O)C(=O)N[C@@H](C)C(=O)N[C@@H]([C@@H](C)O)C(=O)N1)[C@@H](C)O)C(C)C)C(=O)N[C@@H](CC(C)C)C(=O)N[C@@H](CO)C(=O)N1CCC[C@H]1C(=O)N[C@H](C(=O)N[C@@H](CC(N)=O)C(=O)N[C@H](C(=O)NCC(=O)N[C@@H](CO)C(=O)N[C@@H](CCN)C(=O)N[C@H](C(=O)N[C@@H](Cc1ccc(O)cc1)C(N)=O)[C@@H](C)O)C(C)C)[C@@H](C)O) [Peptide 125 (SEQ ID NO: 125)]	1.2	8	10.2
K([γGlu-C18 diacid])KCNTATCATQRLANFLVHSSNN[αMeF]GPILPPTNVGSNTY-NH2 (disulfide 3-8) [Peptide 14 (SEQ ID NO: 14)]	0.22	6	1.35
K([γGlu-γGlu-C18 diacid])CNTATCATQRLANFLVHSS[Aib]NFPAILSPTNVGS[Dab]TY-NH2 (disulfide 2-7; N-terminus assumed; SMILES CC[C@H](C)[C@H](NC(=O)[C@H](C)NC(=O)[C@@H]1CCCN1C(=O)[C@H](Cc1ccccc1)NC(=O)[C@H](CC(N)=O)NC(=O)C(C)(C)NC(=O)[C@H](CO)NC(=O)[C@H](CO)NC(=O)[C@H](Cc1c[nH]cn1)NC(=O)[C@@H](NC(=O)[C@H](CC(C)C)NC(=O)[C@H](Cc1ccccc1)NC(=O)[C@H](CC(N)=O)NC(=O)[C@H](C)NC(=O)[C@H](CC(C)C)NC(=O)[C@H](CCCNC(=N)N)NC(=O)[C@H](CCC(N)=O)NC(=O)[C@@H](NC(=O)[C@H](C)NC(=O)[C@@H]1CSSC[C@H](NC(=O)[C@@H](N)CCCCNC(=O)CC[C@H](NC(=O)CC[C@H](NC(=O)CCCCCCCCCCCCCCCCC(=O)O)C(=O)O)C(=O)O)C(=O)N[C@@H](CC(N)=O)C(=O)N[C@@H]([C@@H](C)O)C(=O)N[C@@H](C)C(=O)N[C@@H]([C@@H](C)O)C(=O)N1)[C@@H](C)O)C(C)C)C(=O)N[C@@H](CC(C)C)C(=O)N[C@@H](CO)C(=O)N1CCC[C@H]1C(=O)N[C@H](C(=O)N[C@@H](CC(N)=O)C(=O)N[C@H](C(=O)NCC(=O)N[C@@H](CO)C(=O)N[C@@H](CCN)C(=O)N[C@H](C(=O)N[C@@H](Cc1ccc(O)cc1)C(N)=O)[C@@H](C)O)C(C)C)[C@@H](C)O) [Peptide 124 (SEQ ID NO: 124)]	1.13	6	6.63

The remaining lines, values ahead:

EC50 (cAMP production) [1] [nM]	Ratio (EC50 hCTR / EC50 hAMYR3) [1]	EC50 (cAMP production) [2] [nM]	Binder
0.364	19.6	7.13	K([γGlu-γGlu-C18 diacid])CNTATCATQRLANFL[Aib]HSSNNFGPILPPTNVGSNTY-NH2 (disulfide 2-7; N-terminus assumed; SMILES CC[C@H](C)[C@H](NC(=O)[C@@H]1CCCN1C(=O)CNC(=O)[C@H](Cc1ccccc1)NC(=O)[C@H](CC(N)=O)NC(=O)[C@H](CC(N)=O)NC(=O)[C@H](CO)NC(=O)[C@H](CO)NC(=O)[C@H](Cc1c[nH]cn1)NC(=O)C(C)(C)NC(=O)[C@H](CC(C)C)NC(=O)[C@H](Cc1ccccc1)NC(=O)[C@H](CC(N)=O)NC(=O)[C@H](C)NC(=O)[C@H](CC(C)C)NC(=O)[C@H](CCCNC(=N)N)NC(=O)[C@H](CCC(N)=O)NC(=O)[C@@H](NC(=O)[C@H](C)NC(=O)[C@@H]1CSSC[C@H](NC(=O)[C@@H](N)CCCCNC(=O)CC[C@H](NC(=O)CC[C@H](NC(=O)CCCCCCCCCCCCCCCCC(=O)O)C(=O)O)C(=O)O)C(=O)N[C@@H](CC(N)=O)C(=O)N[C@@H]([C@@H](C)O)C(=O)N[C@@H](C)C(=O)N[C@@H]([C@@H](C)O)C(=O)N1)[C@@H](C)O)C(=O)N[C@@H](CC(C)C)C(=O)N1CCC[C@H]1C(=O)N1CCC[C@H]1C(=O)N[C@H](C(=O)N[C@@H](CC(N)=O)C(=O)N[C@H](C(=O)NCC(=O)N[C@@H](CO)C(=O)N[C@@H](CC(N)=O)C(=O)N[C@H](C(=O)N[C@@H](Cc1ccc(O)cc1)C(N)=O)[C@@H](C)O)C(C)C)[C@@H](C)O) [Peptide 127 (SEQ ID NO: 127)]
0.118	4.8	0.568	K([γGlu-C18 diacid])KCNTATCATQRLAEFL[Aib]HSSNNFGPILPPTNVGSNTY-NH2 (disulfide 3-8; N-terminus assumed; SMILES CC[C@H](C)[C@H](NC(=O)[C@@H]1CCCN1C(=O)CNC(=O)[C@H](Cc1ccccc1)NC(=O)[C@H](CC(N)=O)NC(=O)[C@H](CC(N)=O)NC(=O)[C@H](CO)NC(=O)[C@H](CO)NC(=O)[C@H](Cc1c[nH]cn1)NC(=O)C(C)(C)NC(=O)[C@H](CC(C)C)NC(=O)[C@H](Cc1ccccc1)NC(=O)[C@H](CCC(=O)O)NC(=O)[C@H](C)NC(=O)[C@H](CC(C)C)NC(=O)[C@H](CCCNC(=N)N)NC(=O)[C@H](CCC(N)=O)NC(=O)[C@@H](NC(=O)[C@H](C)NC(=O)[C@@H]1CSSC[C@H](NC(=O)[C@H](CCCCN)NC(=O)[C@@H](N)CCCCNC(=O)CC[C@H](NC(=O)CCCCCCCCCCCCCCCCC(=O)O)C(=O)O)C(=O)N[C@@H](CC(N)=O)C(=O)N[C@@H]([C@@H](C)O)C(=O)N[C@@H](C)C(=O)N[C@@H]([C@@H](C)O)C(=O)N1)[C@@H](C)O)C(=O)N[C@@H](CC(C)C)C(=O)N1CCC[C@H]1C(=O)N1CCC[C@H]1C(=O)N[C@H](C(=O)N[C@@H](CC(N)=O)C(=O)N[C@H](C(=O)NCC(=O)N[C@@H](CO)C(=O)N[C@@H](CC(N)=O)C(=O)N[C@H](C(=O)N[C@@H](Cc1ccc(O)cc1)C(N)=O)[C@@H](C)O)C(C)C)[C@@H](C)O) [Peptide 128 (SEQ ID NO: 128)]
0.445	19	8.45	K([γGlu-C18 diacid])KCNTATCATQRLANFL[Aib]HSS[Dab]NFGPILPPTNVGSNTY-NH2 (disulfide 3-8; N-terminus assumed; SMILES CC[C@H](C)[C@H](NC(=O)[C@@H]1CCCN1C(=O)CNC(=O)[C@H](Cc1ccccc1)NC(=O)[C@H](CC(N)=O)NC(=O)[C@H](CCN)NC(=O)[C@H](CO)NC(=O)[C@H](CO)NC(=O)[C@H](Cc1c[nH]cn1)NC(=O)C(C)(C)NC(=O)[C@H](CC(C)C)NC(=O)[C@H](Cc1ccccc1)NC(=O)[C@H](CC(N)=O)NC(=O)[C@H](C)NC(=O)[C@H](CC(C)C)NC(=O)[C@H](CCCNC(=N)N)NC(=O)[C@H](CCC(N)=O)NC(=O)[C@@H](NC(=O)[C@H](C)NC(=O)[C@@H]1CSSC[C@H](NC(=O)[C@H](CCCCN)NC(=O)[C@@H](N)CCCCNC(=O)CC[C@H](NC(=O)CCCCCCCCCCCCCCCCC(=O)O)C(=O)O)C(=O)N[C@@H](CC(N)=O)C(=O)N[C@@H]([C@@H](C)O)C(=O)N[C@@H](C)C(=O)N[C@@H]([C@@H](C)O)C(=O)N1)[C@@H](C)O)C(=O)N[C@@H](CC(C)C)C(=O)N1CCC[C@H]1C(=O)N1CCC[C@H]1C(=O)N[C@H](C(=O)N[C@@H](CC(N)=O)C(=O)N[C@H](C(=O)NCC(=O)N[C@@H](CO)C(=O)N[C@@H](CC(N)=O)C(=O)N[C@H](C(=O)N[C@@H](Cc1ccc(O)cc1)C(N)=O)[C@@H](C)O)C(C)C)[C@@H](C)O) [Peptide 126 (SEQ ID NO: 126)]
